Molecular target: T1, ligand binding domain of the nuclear receptor Fushi Tarazu factor-1 (LBD FTZ-F1) (Drosophila, UniProt P33244 786-1027, 15N-labelled in the experiment with the peptide; unlabelled in the experiment with GCEC)
T1 construct: cDNA synthesised (Gene Art); Cloned into pET-15b; residues left by the thrombin site are not described; Purified protein runs as a 26.5 kDa globular protein; also called FTZ-F1 LBD; LDB FTZ-F1 (786-1027); source: E. coli BL21(DE3), soluble fraction, purified (Ni-NTA, thrombin, second IMAC, SEC on Superdex75)
T1 sequence (looked up): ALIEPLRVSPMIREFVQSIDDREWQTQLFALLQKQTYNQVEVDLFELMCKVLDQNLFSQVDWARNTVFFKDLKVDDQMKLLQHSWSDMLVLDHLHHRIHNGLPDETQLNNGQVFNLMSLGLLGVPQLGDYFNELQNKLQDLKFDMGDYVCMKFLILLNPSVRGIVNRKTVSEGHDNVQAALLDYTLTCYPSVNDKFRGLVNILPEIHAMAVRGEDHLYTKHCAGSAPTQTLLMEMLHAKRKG
Assay: NMR titration; 1H-15N HSQC chemical shift perturbation, 15N-labelled LBD FTZ-F1 after incubation with the … peptide (concentration set by its solubility limit), buffer F with 10% D2O, 22 °C, 800 MHz
Details: both partners purified

binding result: binds
B1: 9-residue GCEC peptide (GCE^PEP) (peptide)
peptide: LRLIQNLQK
notes: stretch of the C-terminal region of GCE, D. melanogaster, with the novel NR-box (LIXXL motif; LIQNL); source: synthetic peptide (PSL GmbH, Heidelberg)

— article PMC7643343, “The intrinsically disordered region of GCE protein adopts a more fixed structure by interacting with the LBD of the nuclear receptor FTZ-F1” (Cell Communication and Signaling : CCS, 2020)
